PMC8913689

Molecular target: HA-metabotropic glutamate receptor 3, Q14832
Assay: AFM single-molecule force spectroscopy (AFM-SMFS); living WTT-CHO cells transfected with 1 µg of HA-GPCR vector, basal state, 37 °C; anti-HA antibody on the AFM tip pulls the HA-receptor out of the membrane; unfolding distances fitted by a Gaussian mixture (BIC) and each population assigned to an oligomeric state by the receptor's theoretical …
Settings: remark: other sources report otherwise

B1: HA-metabotropic glutamate receptor 3, Q14832 23-879 (receptor)
chain: LGDHNFLRREIKIEGDLVLGGLFPINEKGTGTEECGRINEDRGIQRLEAMLFAIDEINKDDYLLPGVKLGVHILDTCSRDTYALEQSLEFVRASLTKVDEAEYMCPDGSYAIQENIPLLIAGVIGGSYSSVSIQVANLLRLFQIPQISYASTSAKLSDKSRYDYFARTVPPDFYQAKAMAEILRFFNWTYVSTVASEGDYGETGIEAFEQEARLRNICIATAEKVGRSNIRKSYDSVIRELLQKPNARVVVLFMRSDDSRELIAAASRANASFTWVASDGWGAQESIIKGSEHVAYGAITLELASQPVRQFDRYFQSLNPYNNHRNPWFRDFWEQKFQCSLQNKRNHRRVCDKHLAIDSSNYEQESKIMFVVNAVYAMAHALHKMQRTLCPNTTKLCDAMKILDGKKLYKDYLLKINFTAPFNPNKDADSIVKFDTFGDGMGRYNVFNFQNVGGKYSYLKVGHWAETLSLDVNSIHWSRNSVPTSQCSDPCAPNEMKNMQPGDVCCWICIPCEPYEYLADEFTCMDCGSGQWPTADLTGCYDLPEDYIRWEDAWAIGPVTIACLGFMCTCMVVTVFIKHNNTPLVKASGRELCYILLFGVGLSYCMTFFFIAKPSPVICALRRLGLGSSFAICYSALLTKTNCIARIFDGVKNGAQRPKFISPSSQVFICLGLILVQIVMVSVWLILEAPGTRRYTLAEKRETVILKCNVKDSSMLISLTYDVILVILCTVYAFKTRKCPENFNEAKFIGFTMYTTCIIWLAFLPIFYVTSSDYRVQTTTMCISVSLSGFVVLGCLFAPKVHIILFQPQKNVVTHRLHLNRFSVSGTGTTYSQSSASTYVPTVCNGREVLDSTTSSL
- stoichiometry N: 2
